The text below walks through data of the Immune Epitope Database (IEDB).

The target of assay [1] is HLA-B*08:01. As to the kind of experiment: IEDB peptide-MHC binding, purified MHC/competitive/fluorescence; filed as Kd, often an IC50 or EC50 that approximates it; ≥ and ≤ were set here for values at or beyond the usual limits of such assays.
Assay [2] concerns the target HLA-A*24:02. As to the kind of experiment: IEDB peptide-MHC binding, purified MHC/competitive/fluorescence; ≥ and ≤ were set here for values at or beyond the usual limits of such assays. The settings on record: source organism: Zaire ebolavirus.
Assay [3] deals with HLA-A*02:01. The assay is described as above. The following applies: source organism: Zaire ebolavirus.
Assay [4] has as its target HLA-B*08:01. The description is as above. The following applies: source organism: Zaire ebolavirus.
For assay [5], the target named is HLA-B*48:01. The assay is described as follows: IEDB peptide-MHC binding, purified MHC/direct/fluorescence; filed as Kd, often an IC50 or EC50 that approximates it; ≥ and ≤ were set here for values at or beyond the usual limits of such assays.
For assay [6], the target named is HLA-A*01:01. The assay is described as above.
Assay [7] has as its target HLA-B*08:02. The description is as above.
Assay [8] addresses HLA-A*11:01. Described as above.
For assay [9], the target named is HLA-B*57:01. The description is as above.
The target of assay [10] is HLA-B*58:01. Described as above.
Assay [11] has as its target HLA-A*31:01. Described as above.
Assay [12] addresses HLA-A*03:01. The description is as above.
For assay [13], the target named is HLA-B*46:01. The description is as above. The settings on record: source organism: Cowpox virus.
Assay [14] concerns the target HLA-B*40:01. The description is as above.
In assay [15] the target is HLA-A*26:01. Described as above.
Assay [16] has as its target HLA-B*15:01. The description is as above.
In assay [17] the target is HLA-B*27:05. The description is as above.
In assay [18] the target is HLA-B*15:17. The description is as above.
Assay [19] deals with HLA-A*69:01. The assay is described as follows: IEDB peptide-MHC binding, purified MHC/competitive/fluorescence; filed as Kd, often an IC50 or EC50 that approximates it; ≥ and ≤ were set here for values at or beyond the usual limits of such assays.
Assay [20] has as its target HLA-A*02:06. The description is as above.
For assay [21], the target named is HLA-A*02:01. The assay is described as above.
In assay [22] the target is HLA-A*02:16. The assay is described as follows: IEDB peptide-MHC binding, purified MHC/direct/fluorescence; filed as Kd, often an IC50 or EC50 that approximates it; ≥ and ≤ were set here for values at or beyond the usual limits of such assays. The settings on record: source organism: Choclo virus.
Assay [23] deals with HLA-A*02:11. Described as above. The settings on record: source organism: Choclo virus.
Assay [24] concerns the target HLA-A*02:19. Described as above. The settings on record: source organism: Choclo virus.
For assay [25], the target named is HLA-A*02:03. The description is as above. The settings on record: source organism: Choclo virus.
Assay [26] deals with HLA-A*02:12. The description is as above. The following applies: source organism: Choclo virus.
Assay [27] addresses HLA-B*27:03. As to the kind of experiment: IEDB peptide-MHC binding, purified MHC/competitive/fluorescence; filed as Kd, often an IC50 or EC50 that approximates it; ≥ and ≤ were set here for values at or beyond the usual limits of such assays. The settings on record: source organism: Araucaria virus.
The target in assay [28] is HLA-B*18:01. The assay is described as above. The following applies: source organism: Araucaria virus.
The target of assay [29] is HLA-B*57:01. Described as above. The following applies: source organism: Araucaria virus.
For assay [30], the target named is HLA-B*39:01. The assay is described as above. The settings on record: source organism: Araucaria virus.
Assay [31] concerns the target HLA-B*46:01. Described as above. The following applies: source organism: Araucaria virus.
The target of assay [32] is HLA-A*26:01. The assay is described as above. The settings on record: source organism: Araucaria virus.
Assay [33] concerns the target HLA-B*15:01. Described as above. The settings on record: source organism: Araucaria virus.
Assay [34] has as its target HLA-B*51:01. The assay is described as above. The following applies: source organism: Araucaria virus.
Assay [35] concerns the target HLA-A*11:01. As to the kind of experiment: IEDB peptide-MHC binding, purified MHC/competitive/fluorescence; ≥ and ≤ were set here for values at or beyond the usual limits of such assays. The settings on record: source organism: Zaire ebolavirus.
The target in assay [36] is HLA-A*03:01. The assay is described as above. The settings on record: source organism: Zaire ebolavirus.
The target of assay [37] is HLA-A*69:01. The assay is described as follows: IEDB peptide-MHC binding, purified MHC/direct/fluorescence; filed as Kd, often an IC50 or EC50 that approximates it; ≥ and ≤ were set here for values at or beyond the usual limits of such assays. The settings on record: source organism: Burkholderia mallei.
The target in assay [38] is HLA-B*39:01. The assay is described as above. The settings on record: source organism: Burkholderia mallei ATCC 23344.
The target in assay [39] is HLA-A*02:16. The assay is described as follows: IEDB peptide-MHC binding, purified MHC/competitive/fluorescence; filed as Kd, often an IC50 or EC50 that approximates it; ≥ and ≤ were set here for values at or beyond the usual limits of such assays. The settings on record: source organism: Desulfatibacillum alkenivorans AK-01.
Assay [40] has as its target HLA-A*02:11. The assay is described as above. The settings on record: source organism: Desulfatibacillum alkenivorans AK-01.
For assay [41], the target named is HLA-A*02:19. The description is as above. The settings on record: source organism: Desulfatibacillum alkenivorans AK-01.
Assay [42] has as its target HLA-A*02:03. The assay is described as above. The settings on record: source organism: Desulfatibacillum alkenivorans AK-01.
Assay [43] has as its target HLA-A*02:12. The assay is described as above. The following applies: source organism: Desulfatibacillum alkenivorans AK-01.
Where [44] appears, read: source organism: Vaccinia virus Copenhagen.
Setting [45] is: source organism: Araucaria virus.
Where [46] appears, read: source organism: Burkholderia mallei.
Where [47] appears, read: source organism: Burkholderia mallei ATCC 23344.
[48] abbreviates: source organism: Burkholderia mallei NCTC 10229.
Setting [49] is: source organism: Desulfatibacillum alkenivorans AK-01.

As for KLERRMENL, the dissociation constant (Kd) in assay [1] (source organism: Influenza A virus (A/Osaka/930/88(H1N1))) is not below 20000 nM.

On to LFQRTFSIP, for which the results for the half-maximal inhibitory concentration (IC50) in [2], in assay [3] and in assay [4] were 1040 nM, not below 72.9 µM and not below 270 µM, respectively.

With YKDANISMY, the equilibrium dissociation constant (Kd) is not below 20 µM in [5] (source organism: Cowpox virus); not below 20000 nM in [6] (source organism: Cowpox virus); not below 20 µM in assay [7] (source organism: Variola virus); not below 20 µM in assay [8] (source organism: Cowpox virus); not below 20 µM in assay [9] (source organism: Cowpox virus); not below 20 µM in assay [10] (source organism: Cowpox virus). Moreover, the Kd in assay [11] (source organism: Cowpox virus) is not below 20 µM; in assay [12] (source organism: Cowpox virus) it was not below 20 µM; in assay [13], not below 20 µM; in assay [14] (source organism: Cowpox virus) it was not below 20 µM; in [15] (source organism: Variola virus), not below 20000 nM; in [16] (source organism: Cowpox virus), not below 20 µM. In addition, the Kd in assay [17] (source organism: Cowpox virus) is not below 20 µM; in assay [18] (source organism: Cowpox virus), not below 20 µM; in assay [19] (setting [44]), 1.04 µM; in assay [20] (setting [44]), 107 nM; in assay [21] (setting [44]), 113 nM.

On to ELRQLAQSL, for which the dissociation constant (Kd) in [22], in assay [23], in [24], in [25], in assay [12] (source organism: Choclo virus) and in assay [26] was not below 20 µM each time. Moreover, the Kd is not below 20 µM in [19] (setting [45]); not below 20 µM in [27]; not below 20000 nM in assay [21] (setting [45]); not below 20 µM in assay [28]; not below 20 µM in assay [29]; not below 20 µM in assay [30]. The Kd in [31] is not below 20 µM; in [1] (setting [45]), 156 nM; in assay [32], not below 20 µM; in assay [33], not below 20 µM; in assay [34] it was not below 20 µM.

Take MVIFRLMRT: the half-maximal inhibitory concentration (IC50) in assay [3] is 0.478 µM; in [35], not below 177 µM; in [36], not below 96.6 µM; in [4] it was not below 77.6 µM.

In the case of EGHGFRFEV, the results for the IC50 in assay [3] and in assay [4] were 28.1 µM and 69.3 µM, respectively.

For the sequence IYDFYNAEY, the dissociation constant Kd in assay [37] was not below 20 µM; in assay [5] (setting [46]) it was not below 20 µM; in assay [6] (setting [46]), 1760 nM; in assay [7] (setting [47]), not below 20 µM; in assay [8] (setting [46]) it was not below 20 µM; in [9] (setting [46]) it was not below 20 µM. Besides, the Kd in [10] (setting [46]) was not below 20 µM; in assay [11] (setting [46]) it was not below 20 µM; in assay [12] (setting [46]) it was not below 20 µM; in assay [38], not below 20 µM; in assay [14] (setting [46]) it was not below 20 µM; in assay [15] (setting [47]), 91 nM. Further, the equilibrium dissociation constant (Kd) in assay [16] (setting [46]) was not below 20 µM; in [17] (setting [46]), not below 20 µM; in assay [18] (setting [46]), 5.09 µM; in assay [20] (setting [48]), 53.4 nM; in assay [21] (setting [48]) it was 138 nM.

With KLGKAGYVV, the dissociation constant Kd was not below 20 µM in [19] (setting [49]); 1.92 nM in assay [20] (setting [49]); 384 nM in assay [21] (setting [49]); 1.77 nM in assay [39]; 1.3 nM in [40]; 117 nM in [41]. Moreover, the Kd worked out at 2.29 nM in assay [42] and 23.5 nM in [43].

As usually defined, the Kd is the concentration at which binding is half-saturated. Read a low Kd as higher affinity. The term IC50 denotes the concentration that gives 50% inhibition.
